Test results as given in US20200362026A1 (INSTITUTE FOR RESEARCH IN BIOMEDICINE, published 2020).

T1: FcγRIIb (UniProt P31994 43-310, limits assumed)
T1 construct: whole, on cells; also called FcgRIIb; Fcγ receptor IIb
T1 sequence (looked up): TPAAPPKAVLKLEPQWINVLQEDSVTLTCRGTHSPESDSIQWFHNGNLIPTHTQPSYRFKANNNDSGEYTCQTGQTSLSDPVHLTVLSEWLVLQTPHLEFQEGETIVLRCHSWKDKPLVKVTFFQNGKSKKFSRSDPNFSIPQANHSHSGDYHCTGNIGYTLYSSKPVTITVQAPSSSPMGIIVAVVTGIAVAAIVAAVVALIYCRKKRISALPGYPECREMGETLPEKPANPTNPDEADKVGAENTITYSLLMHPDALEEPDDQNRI

T2: FcγRIIa (UniProt P12318 34-317, limits assumed)
T2 construct: whole, on cells; also called FcgRIIa; Fcγ receptor IIa
T2 sequence (looked up): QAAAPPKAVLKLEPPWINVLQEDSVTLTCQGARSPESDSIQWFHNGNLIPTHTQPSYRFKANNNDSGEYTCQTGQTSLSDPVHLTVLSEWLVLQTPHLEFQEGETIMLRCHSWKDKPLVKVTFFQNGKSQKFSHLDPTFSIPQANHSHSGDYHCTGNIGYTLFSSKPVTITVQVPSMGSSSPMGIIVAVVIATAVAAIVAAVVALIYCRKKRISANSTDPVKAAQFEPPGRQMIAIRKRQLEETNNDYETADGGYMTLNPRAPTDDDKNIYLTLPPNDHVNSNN

B1: Bs3GC2b bispecific antibody (bispecific antibody, human IgG1, lambda)
heavy: not shown
light: SYVLTQPPSVSVAPGQTASLTCGGTNIGSKSVHWYQQKAGQAPVLVVYADNDRPSGVPERFSGSNSGNTATLTISRVEAEDESDYFCQVWDGNTDHVVFGGGTKLTVLGQPKAAPSVTLFPPSSEELQANKATLVCLISDFYPGAVTVAWKADSSPVKAGVETTTPSKQSNNKYAASSYLSLTPEQWKSHRSYSCQVTHEGSTVEKTVAPTECS
notes: Bispecific tetravalent IgG1, construct type Bs3; specificities GCE536 + GCB59
B2: Bs3GC3b bispecific antibody (bispecific antibody, human IgG1, lambda)
heavy: not shown
light: SYVLTQPPSVSVAPGQTASLTCGGTNIGSKSVHWYQQKAGQAPVLVVYADNDRPSGVPERFSGSNSGNTATLTISRVEAEDESDYFCQVWDGNTDHVVFGGGTKLTVLGQPKAAPSVTLFPPSSEELQANKATLVCLISDFYPGAVTVAWKADSSPVKAGVETTTPSKQSNNKYAASSYLSLTPEQWKSHRSYSCQVTHEGSTVEKTVAPTECS
notes: Bispecific tetravalent IgG1, construct type Bs3; specificities GCA7 + GCB59
B3: Bs3GC4 bispecific antibody (bispecific antibody, human IgG1, kappa)
heavy: not shown
light: DIQMTQSPSTLSTSVGDRVTITCRASQNILNWLAWYQQKPGNAPNLLIYKASDLQSGVPSRFSGSGSGTEFTLTISSLQPDDFATYYCQHYNSYPLTFGGGTKVEIKRTVAAPSVFIFPPSDEQLKSGTASVVCLLNNFYPREAKVQWKVDNALQSGNSQESVTEQDSKDSTYSLSSTLTLSKADYEKHKVYACEVTHQGLSSPVTKSFNRGEC
notes: Bispecific tetravalent IgG1, construct type Bs3; specificities GCA21 + GCE536; also called BsGC4
B4: Bs3GC5 bispecific antibody (bispecific antibody, human IgG1, kappa)
heavy: not shown
light: DIQMTQSPSTLSTSVGDRVTITCRASQNILNWLAWYQQKPGNAPNLLIYKASDLQSGVPSRFSGSGSGTEFTLTISSLQPDDFATYYCQHYNSYPLTFGGGTKVEIKRTVAAPSVFIFPPSDEQLKSGTASVVCLLNNFYPREAKVQWKVDNALQSGNSQESVTEQDSKDSTYSLSSTLTLSKADYEKHKVYACEVTHQGLSSPVTKSFNRGEC
notes: Bispecific tetravalent IgG1, construct type Bs3; specificities GCA21 + GCA7
B5: Ts1GC2a trispecific antibody (antibody, human IgG1, kappa)
heavy: not shown
light: EIVLTQSPGTLSLSPGETAILSCRASQSVSSSLLAWYQQKPGQAPRLLIYGASNRATGIRGRFSGSGSGTDFTLTISRLEPEDFVLYYCQHYGSRVTFGQGTKLEIKRTVAAPSVFIFPPSDEQLKSGTASVVCLLNNFYPREAKVQWKVDNALQSGNSQESVTEQDSKDSTYSLSSTLTLSKADYEKHKVYACEVTHQGLSSPVTKSFNRGEC
notes: Trispecific hexavalent IgG1, construct type Ts1; specificities GCE536 + GCA7 + GCB59
B6: Bs3GC1a bispecific antibody (bispecific antibody, human IgG1, kappa)
heavy: not shown
light: EIVLTQSPGTLSLSPGETAILSCRASQSVSSSLLAWYQQKPGQAPRLLIYGASNRATGIRGRFSGSGSGTDFTLTISRLEPEDFVLYYCQHYGSRVTFGQGTKLEIKRTVAAPSVFIFPPSDEQLKSGTASVVCLLNNFYPREAKVQWKVDNALQSGNSQESVTEQDSKDSTYSLSSTLTLSKADYEKHKVYACEVTHQGLSSPVTKSFNRGEC
notes: Bispecific tetravalent IgG1, construct type Bs3; specificities GCE536 + GCA7
B7: Ts3GC2d trispecific antibody (antibody, human IgG1, kappa)
heavy: not shown
light: EIVLTQSPGTLSLSPGETAILSCRASQSVSSSLLAWYQQKPGQAPRLLIYGASNRATGIRGRFSGSGSGTDFTLTISRLEPEDFVLYYCQHYGSRVTFGQGTKLEIKRTVAAPSVFIFPPSDEQLKSGTASVVCLLNNFYPREAKVQWKVDNALQSGNSQESVTEQDSKDSTYSLSSTLTLSKADYEKHKVYACEVTHQGLSSPVTKSFNRGEC
notes: Trispecific hexavalent IgG1, construct type Ts3; specificities GCE536 + GCA7 + GCB59; also called TsGC2d; TsgC2d
B8: Bs1GC2a bispecific antibody (bispecific antibody, human IgG1, kappa)
heavy: not shown
light: EIVLTQSPGTLSLSPGETAILSCRASQSVSSSLLAWYQQKPGQAPRLLIYGASNRATGIRGRFSGSGSGTDFTLTISRLEPEDFVLYYCQHYGSRVTFGQGTKLEIKRTVAAPSVFIFPPSDEQLKSGTASVVCLLNNFYPREAKVQWKVDNALQSGNSQESVTEQDSKDSTYSLSSTLTLSKADYEKHKVYACEVTHQGLSSPVTKSFNRGEC
notes: Bispecific tetravalent IgG1, construct type Bs1; specificities GCE536 + GCB59

Tests used:
[1] = target: T3, human GM-CSF (granulocyte macrophage-colony stimulating factor) (human, UniProt P04141 18-144); experiment: cell-based or functional assay
T3 sequence (P04141 18-144 limits assumed): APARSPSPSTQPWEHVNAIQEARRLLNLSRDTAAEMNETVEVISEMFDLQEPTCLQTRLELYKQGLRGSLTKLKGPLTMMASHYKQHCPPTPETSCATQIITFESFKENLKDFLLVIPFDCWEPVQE

[2] = target: T1, FcγRIIb; experiment: flow cytometry, TZM-bl cells expressing FcγRIIb, mAb alone (w/o GM-CSF)
Description: (§1) Expression of specific FcγRs was assessed by staining TZM-b1 cells with FITC-conjugated anti-CD64 (anti-FcγRI), anti-CD32 (anti-FcγRIIa and anti-FcγRIIb) and anti-CD16 (anti-FcγRIIIa) antibodies (all from BD Pharmingen). Untrasfected and transfected TZM-b1 cells were washed with staining buffer (PBS with 10% Fetal Bovine Serum and 2 mM EDTA) and seeded in 96-well-plates at a density of 50,000 cells per well. […] The LALA versions of all antibodies and a mAb with a different specificity were included as controls. Samples were incubated at 37° C. for 30 min to allow the formation of immune complexes and then cooled down to 4° C. before adding them to TZM-b1 cells for 30 min. Cells were washed twice and stained with anti-human IgG Fcγ fragment specific F(ab′)2 fragment (Jackson ImmunoResearch). Samples were analyzed on BD FACSCanto (BD Biosciences) and median intensity fluorescence was analyzed and compared between samples.
(§2) To address the engagement of Fcγ receptors, immune complexes formed between GM-CSF and multispecific antibodies were tested for their capacity to bind to TZM-b1 cells expressing FcγRIIa and FcγRIIb receptors. Multispecific antibodies were mixed with 0.05 μg/ml of GM-CSF, or staining buffer. Samples were incubated at 37° C. for 30 min to allow the formation of immune complexes and then cooled down to 4° C. before adding them to TZM-b1 cells for 30 minutes. Cells were washed twice and stained with anti-human IgG Fcγ fragment specific F(ab′)2 fragment. Samples were analyzed on BD FACSCanto (BD Biosciences) and median intensity fluorescence was analyzed and compared between samples.

[3] = target: T2, FcγRIIa; experiment: flow cytometry, TZM-bl cells expressing FcγRIIa, immune complex with low GM-CSF
Description: as §1, §2

[4] = target: T3, human GM-CSF (granulocyte …); experiment: ELISA on GM-CSF
[5] = target: T1, FcγRIIb; experiment: flow cytometry, TZM-bl FcγRIIb cells; average ratio of binding in presence and in absence of GM-CSF
Description: as §1, §2

[6] = target: T2, FcγRIIa; experiment: flow cytometry, TZM-bl FcγRIIa cells; average ratio of binding in presence and in absence of GM-CSF
Description: as §2

[7] = target: T1, FcγRIIb; experiment: flow cytometry, TZM-bl cells expressing FcγRIIb, immune complex with low GM-CSF
Description: as §1, §2

[8] = target: T2, FcγRIIa; experiment: flow cytometry, TZM-bl cells expressing FcγRIIa, immune complex with high GM-CSF
Description: as §2

[9] = target: T2, FcγRIIa; experiment: flow cytometry, TZM-bl cells expressing FcγRIIa, mAb alone (w/o GM-CSF)
Description: as §1, §2

[10] = target: T1, FcγRIIb; experiment: flow cytometry, TZM-bl cells expressing FcγRIIb, immune complex with high GM-CSF
Description: as §1, §2

| Binder | IC90 less stringent conditions (50 pg/ml GM-CSF, 1,000 TF-1/well) [1] [ng/mL] | IC90 more stringent conditions (500 pg/ml GM-CSF, 1,000 TF-1/well) [1] [ng/mL] | IC90 stringent conditions (50 pg/ml GM-CSF, 10,000 TF-1/well) [1] [ng/mL] | IC90 very stringent conditions (500 pg/ml GM-CSF, 10,000 TF-1/well) [1] [ng/mL] | MFI [2] [MFI] | MFI [3] [MFI] | EC50 [4] [ng/mL] | Average RATIO FcgRIIb [5] [ratio] | Average RATIO FcgRIIa [6] [ratio] | MFI [7] [MFI] | MFI [8] [MFI] | MFI [9] [MFI] | MFI [10] [MFI] |
| --- | --- | --- | --- | --- | --- | --- | --- | --- | --- | --- | --- | --- | --- |
| B1 | 0.559 | 6.21 | 1.07 | 11.2 | 96700 | 7130 | 48.6 | 7.67 | 20 | 181000 | 269000 | 6910 | 1.3e+06 |
| B2 | 1.28 | 17.8 | 2.96 | 124 | 2630 | 8290 | 587 | 93.3 | 48.7 | 57800 | 55000 | 650 | 433000 |
| B3 | 9.26 | 97.5 | 90.8 | 739 | 123000 | 24500 | 32.3 | 0.81 | 3.26 | 137000 | 19500 | 6730 | 62600 |
| B4 | 1.3 | 6.46 | 4.18 | 10.2 | 177000 | 30200 | 41.8 | 5.58 | 226 | 393000 | 468000 | 1100 | 1.58e+06 |
| B5 | 0.265 | 3.17 | 0.281 | 2.53 | 67200 | 4130 | 33.5 | 3.96 | 2.46 | 136000 | 9870 | 2850 | 397000 |
| B6 | 0.681 | 4.72 | 0.963 | 6.24 | 20600 | 1270 | 74.3 | 16.6 | 48.4 | 175000 | 65300 | 687 | 510000 |
| B7 | 0.536 | 0.795 | 0.413 | 0.768 | 29000 | 7900 | 29.6 | 17.2 | 49.5 | 344000 | 122000 | 1310 | 652000 |
| B8 | 2.77 | 9.92 | 31.4 | 217 | 11800 | 9140 | 16.2 | 77.8 | 435 | 398000 | 566000 | 662 | 1.44e+06 |
